According to article doi:10.1101/2023.04.11.536350:
Where “and” joins values, the source holds several entries; their conditions need not be identical. Equal entries are not always repeated.

Experiments:
[1] = target: ErCry4a C317A (European robin (Erithacus rubecula)); assay: native MS
[2] = target: ErCry4a C412A (European robin (Erithacus rubecula)); assay: native MS
[3] = target: ErCry4a C412A+C317A (European robin (Erithacus rubecula)); assay: native MS
[4] = target: European robin cryptochrome 4a, wild type, with N-terminal 10xHis-tag (European robin (Erithacus rubecula)); assay: native MS
[5] = target: European robin cryptochrome 4a, wild type, with N-terminal 10xHis-tag (European robin (Erithacus rubecula)); assay: native MS; remark: listed apart in the source
[6] = target: European robin cryptochrome 4a, wild type, with N-terminal 10xHis-tag (European robin (Erithacus rubecula)); assay: mass photometry

## ErCry4a C317A (natural protein)
[1]
  stoichiometry N: 2 and 3

## ErCry4a C412A (natural protein)
[2]
  stoichiometry N: 2 and 3

## ErCry4a C412A+C317A (natural protein)
[3]
  stoichiometry N: 2 and 3

## European robin cryptochrome 4a, wild type, with N-terminal 10xHis-tag (natural protein)
[4]
  stoichiometry N: 2
[5]
  stoichiometry N: 3
[6]
  percent of counts in the dimer peak: 11%
  stoichiometry N: 2
